Entries after “also recorded” stand apart in the source; their conditions may differ.

The source of these data is patent US9533026B2, “Polypeptide compounds for inhibiting angiogenesis and tumor growth” (VasGene Therapeutics, Inc., priority 2004, dated 2017).

In one series the test system is SCC15 tumors. The series can be described thus: SCC15 tumor growth and histology in nude mice, soluble EphB4. The settings on record: for SCC15 tumor growth: Balb/C nu/nu mice. The class given is in vivo, mouse. The protocol: The same model was used to determine the effects of soluble EphB4 in vivo. SCC15 tumors implanted subcutaneously, pre-incubated with matrigel and with or w/o growth factors, as well as implanted sc alone, and mice treated sc or ip daily with 1-5 μg of soluble EphB4 were carried out.
Subcutaneously inject logarithmically growing SCC15, head and neck squamous cell carcinoma cell line, at 5×10^6 cell density; with or without EphB4 ECD in the presence or absence of human bFGF, into athymic Balb/c nude mice, along with Matrigel (BD Bioscience) synthetic basement membrane (1:1 v/v), and examine tumors within 2 weeks. […] There was no difference in body weight between the groups. Immunohistochemical examination of cross-sections of resected tumors and TUNEL-positive apoptosis or necrosis, CD34 immunostaining, and BrdU proliferation rate will be performed, after deparaffinized, rehydrated, and quenched for endogenous peroxidase activity, and after 10 min permeabilization with proteinase K. Quantitative assessment of vascular densities will also be performed. Local intratumoral delivery or IV delivery of EphB4 ECD will also be performed twice a week.
(§1) 30 athymic nude mice, BALB/c (nu/nu), were each injected with 1×10^6 B16 melanoma cells with 0.1 ml PBS mixed with 0.1 ml matrigel or 1.5×10^6 SCC15 cells resuspended in 200 μl of DMEM serum-free medium and injected subcutaneously on day 0 on the right shoulder region of mice. Proteins were injected intravenously or subcutaneously, around the tumor beginning on day 1 at a loading dose of 4 μg/mg, with weekly injections of 2 ug/mg. (10 μg/g, 50 μg/kg/day), and at 2 weeks post-inoculation. Mice are sacrificed on Day 14. Control mice received PBS 50 μl each day.
All animals were treated under protocols approved by the institutional animal care committees. Cancer cells (5×10^6) were subcutaneously inoculated into the dorsal skin of nude mice. When the tumor had grown to a size of about 100 mm^3 (usually it took 1[…]2 days), sEphB4 was either intraperitoneally or subcutaneously injected once/day, and tumorigenesis was monitored for 2 weeks. Tumor volume was calculated according to the formula a^2xb, where a and b are the smallest and largest diameters, respectively. A Student's t test was used to compare tumor volumes, with P<0.05 being considered significant.
Tumors were fixed in 4% formaldehyde, embedded in paraffin, sectioned by 5 μm, and stained with hematoxylin[…]eosin. Vessel density was semi-quantitated using a computer-based image analyzer (five fields per section from three mice in each group).

The test system of series [1] is vascularization of Matrigel plugs. The series can be described thus: Murine Matrigel plug angiogenesis assay. The class given is in vivo, mouse. The following applies: for vascularization of Matrigel plugs / in vivo angiogenesis: plugs with bFGF and VEGF, s.c., mice; for infiltration / invasion of cells into Matrigel plugs: plugs with growth factors. The procedure:
Cord formation assay of HUVEC in Matrigel™ (upper row). Cells in exponential growth phase were treated overnight with the indicated concentrations of EphB4 extracellular domain (ECD) prior to plating on Matrigel™. Cells were trypsinized and plated (1×10^5 cells/well) in a 24-well plate containing 0.5 ml Matrigel™. Shown are representative 20× phase contrast fields of cord formation after 8 hr plating on Matrigel™ in the continued presence of the test compounds as shown. Original magnification 200×. KS-SLK cells treated in a similar manner (middle row) in a cord formation assay on Matrigel™. […] After 7 days the plugs were removed, sectioned and stained with H&E to visualize cells migrating into the matrix.
Matrigel supplemented with bFGF and VEGF with and without soluble EphB4 was injected s.c. into Balb/C nu/nu mice, forming semi-solid plugs, for six days. Plugs without growth factors had virtually no vascularization or vessel structures after 6 days (FIG. 21). In contrast, plugs supplemented with bFGF and VEGF had extensive vascularization and vessels throughout the plug.
In vivo angiogenesis was assayed in mice as growth of blood vessels from subcutaneous tissue into a Matrigel plug containing the test sample. Matrigel rapidly forms a solid gel at body temperature, trapping the factors to allow slow release and prolonged exposure to surrounding tissues. Matrigel (8.13 mg/ml, 0.5 ml) in liquid form at 4° C. was mixed with Endothelial Cell Growth Supplement (ECGS), test proteins plus ECGS or Matrigel plus vehicle alone (PBS containing 0.25% BSA). Matrigel (0.5 ml) was injected into the abdominal subcutaneous tissue of female nu/nu mice (6 wks old) along the peritoneal mid line. There were 3 mice in each group. The animals were cared for in accordance with institutional and NIH guidelines. At day 6, mice were sacrificed and plugs were recovered and processed for histology. Typically the overlying skin was removed, and gels were cut out by retaining the peritoneal lining for support, fixed in 10% buffered formalin in PBS and embedded in paraffin. Sections of 3 μm were cut and stained with H&E or Masson's trichrome stain and examined under light microscope

The subject of another series is B16 (melanoma). In words: B16 melanoma tumor in mice, soluble EphB4. Format: in vivo, mouse. The procedure: Tumors were injected premixed with Matrigel plus growth factors and soluble EphB4 subcutaneously. After 10 to 14 days, the mice were injected intravenously with FITC-lectin (green) to assess blood vessel perfusion.
as §1

Another series deals with human endothelial cells. The series can be described thus: Endothelial cell chemotaxis / migration (Boyden chamber). Format: cell-based. The settings on record: for chemotaxis of human endothelial cells: umbilical cord and hepatic AECs or VECs, growth factor stimuli. The protocol:
Migration is assessed using the 48-well Boyden chamber and 8 μm pore size collagen-coated (10 μg/ml rat tail collagen; Collaborative Laboratories) polycarbonate filters (Osmonics, Inc.). The bottom chamber wells receive 27-29 μl of DMEM medium alone (baseline) or medium containing chemo-attractant (bFGF, VEGF or Swiss 3T3 cell conditioned medium). The top chambers receive 45 μl of HUVEC cell suspension (1×10^6 cells/ml) prepared in DMEM+1% BSA with or without test compound. After 5 h incubation at 37° C., the membrane is rinsed in PBS, fixed and stained in Diff-Quick solutions. The filter is placed on a glass slide with the migrated cells facing down and cells on top are removed using a Kimwipe. The testing is performed in 4-6 replicates and five fields are counted from each well. Negative unstimulated control values are subtracted from stimulated control and drug treated values and data is plotted as mean migrated cell±S.D. IC50 is calculated from the plotted data.
Chemotaxis of HUVECs to VEGF was assessed using a modified Boyden chamber, transwell membrane filter inserts in 24 well plates, 6.5 mm diam, 8 μm pore size, 10 μm thick matrigel coated, polycarbonate membranes (BD Biosciences). The cell suspensions of HUVECs (2×10^5 cells/ml) in 200 μl of EBM were seeded in the upper chamber and the soluble EphB4 protein were added simultaneously with stimulant (VEGF or bFGF) to the lower compartment of the chamber and their migration across a polycarbonate filter in response to 10-20 ng/ml of VEGF with or without 100 nM-1 μM test compound was investigated. After incubation for 4-24 h at 37° C., the upper surface of the filter was scraped with swab and filters were fixed and stained with Diff Quick. Ten random fields at 200× mag were counted and the results expressed as mean # per field. Negative unstimulated control values were subtracted from stimulated control and protein treated sample values and the data was plotted as mean migrated cell±S.D. IC50 was calculated from the plotted data.

B1: soluble EphB4: soluble EphB4 extracellular domain protein; exact construct not stated at the results (protein)
chain: LEETLLNTKLETADLKWVTFPQVDGQWEELSGLDEEQHSVRTYEVCDVQRAPGQAHWLRTGWVPRRGAVHVYATLRFTMLECLSLPRAGRSCKETFTVFYYESDADTATALTPAWMENPYIKVDTVAAEHLTRKRPGAEATGKVNVKTLRLGPLSKAGFYLAFQDQGACMALLSLHLFYKKCAQLTVNLTRFPETVPRELVVPVAGSCVVDAVPAPGPSPSLYCREDGQWAEQPVTGCSCAPGFEAAEGNTKCRACAQGTFKPLSGEGSCQPCPANSHSNTIGSAVCQCRVGYFRARTDPRGAPCTTPPSAPRSVVSRLNGSSLHLEWSAPLESGGREDLTYALRCRECRPGGSCAPCGGDLTFDPGPRDLVEPWVVVRGLRPDFTYTFEVTALNGVSSLATGPVPFEPVNVTTDREVPPAVSDIRVTRSSPSSLSLAWAVPRAPSGAVLDYEVKYHEKGAEGPSSVRFLKTSENRAELRGLKRGASYLVQVRARSEAGYGPFGQEHHSQTQLDESEGWREQLA
For the molecule B1, the SCC15 tumor growth entry with SCC15 tumors is recorded as “inhibits; also recorded: reduced growth rate”. Besides, the tumor angiogenesis result is reported as “marked inhibition” in the series on SCC15 tumors (SCC15, premixed with Matrigel plus growth factors, 10 to 14 days, FITC-lectin) and “marked inhibition” with B16 (melanoma) (B16, premixed with Matrigel plus growth factors, 10 to 14 days). Besides, in the series with SCC15 tumors (co-injected with Matrigel, presence and absence of growth factor, within 2 weeks), the “Tumor volumes versus vehicle groups” value is “three-fold smaller”. Further, the “Fibrin deposition in and around blood vessels” value in the series on SCC15 tumors (inner viable rim and central necrotic core, Masson's Trichrome) is given as “increased”. For the same molecule, the “effects on the endothelium in normal tissues” value in the series on SCC15 tumors (lungs, liver and kidneys) is reported as “no such effects”. Further, the “Necrosis, percentage of tumor section area” value with SCC15 tumors (treated vs control, p<0.02) was “more extensive”. Moreover, the body weight entry in the series with SCC15 tumors (tumor-bearing mice) was “no significant effect”; in the series with SCC15 tumors (tumor-bearing mice, listed as EphB4 ECD), “no difference”. Moreover, the tolerability in vivo entry in the series on SCC15 tumors (tumor-bearing mice, general well-being) was “well tolerated”. The “vascularization of Matrigel plugs / in vivo angiogenesis” value in series [1] is listed as “markedly reduced”; in series [1] (listed as EphB4-ECD), “inhibits”. Further, the “infiltration / invasion of cells into Matrigel plugs” value in series [1] was “significantly inhibited”; in series [1] (listed as EphB4 ECD), “almost completely inhibited”. Further, in the series with human endothelial cells (HUV/AEC, Boyden chamber, dose-dependent), the “bFGF and VEGF-induced migration” value is given as “significantly inhibited”.

B2: B4ECv3: soluble extracellular domain derivative of human EphB4, SEQ ID NO:1 (protein)
chain: MELRVLLCWASLAAALEETLLNTKLETADLKWVTFPQVDGQWEELSGLDEEQHSVRTYEVCEVQRAPGQAHWLRTGWVPRRGAVHVYATLRFTMLECLSLPRAGRSCKETFTVFYYESDADTATALTPAWMENPYIKVDTVAAEHLTRKRPGAEATGKVNVKTLRLGPLSKAGFYLAFQDQGACMALLSLHLFYKKCAQLTVNLTRFPETVPRELVVPVAGSCVVDAVPAPGPSPSLYCREDGQWAEQPVTGCSCAPGFEAAEGNTKCRACAQGTFKPLSGEGSCQPCPANSHSNTIGSAVCQCRVGYFRARTDPRGAPCTTPPSAPRSVVSRLNGSSLHLEWSAPLESGGREDLTYALRCRECRPGGSCAPCGGDLTFDPGPRDLVEPWVVVRGLRPDFTYTFEVTALNGVSSLATGPVPFEPVNVTTDREVPPAVSDIRVTRSSPSSLSLAWAVPRAPSGAWLDYEVKYHEKGAEGPSSVRFLKTSENRAELRGLKRGASYLVQVRARSEAGYGPFGQEHHSQTQLDESEGWREQGSKRAILQIEGKPIPNPLLGLDSTRTGHHHHHH
modifications: Recombinant B4ECv3 protein
B2: in the series with SCC15 tumors, the SCC15 tumor growth entry is listed as “inhibits”. For the same molecule, in series [1], the “infiltration / invasion of cells into Matrigel plugs” value is on record as “inhibits invasion”. In the series with B16 (melanoma) (B16 co-injected with matrigel and growth factors), the “in vivo tumor growth” value is given as “inhibits”. In addition, the “chemotaxis of human endothelial cells” value in the series with human endothelial cells was “blocked chemotaxis”; with human endothelial cells (listed as EphB4v3) it was “inhibits chemotaxis”.
